Assay: yeast display, Sf9 membrane polyspecificity reagent, FACS + sequencing; frameworks hold sequencing errors
Outline: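 A synthetic nanobody library was expressed on Saccharomyces cerevisiae BJ5465 by galactose induction for 36–48 hours. The library was stained for 1 hour at 4 °C with 10% biotinylated, detergent-solubilized Sf9 membrane reagent and enriched with streptavidin microbeads before FACS. Low and high (top ~1%) gates were set on anti-HA fluorescence for expression and streptavidin fluorescence for reagent binding, and each polyreactivity label reflects the gate of origin.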

Row | Sequence | polyreactivity (PSR sort gate)
1 | QVQLVESGGGLVQAGGSLRLSCAASGSIFTLYTMGWYRQAPGKERELVAGISWRGGRTYYADSVKGRFTISRDNAKNTVYLQMNSLKPEDTAVYYCAAKWTPHIYTLYSWGQGTQVTVSS | high polyreactivity
2 | QVQLVESGGGLVQAGGSLRLSCAASGSIFTNAMGWYRQAPGKERELVASIDANAGDTHYADSVKGRFTISRDNAKKTVYLQMNSLKPEDTAVYYCNADVTERLWTGEDDYWGQGTQVTVSS | low polyreactivity
3 | QVQLVESGGGLVQAGGSLRLSCAASGSIFTNNAMGRYRQAPGKERELVAGISFRGSSTYADSVKGRFTISRDNAKNTVYLQMNSLKPEDTAVYYCAAEWFDLEDDYWGQGTQVTVSS | low polyreactivity
4 | QVQLVESGGGLVQAGGSLRLSCAASGSIFTNNAMGWYRQAPGKETELVAAISWSGGSTYYADSVKGRFTISRDNAKNTVYLQMNSLKPEDTAVYYCAARRWGGPRYKYNYWGQGTQVTVSS | high polyreactivity
5 | QVQLVESGGGLVQAGGSLRLSCAASGSIFTPNAMGWYRQAPGKERELVAAISSSSDRTYYADSVKGRFTISRDNAKNTVYLQMNSLKPEDTAVYYCAAYAQKRYYWGQVTQVTVSS | high polyreactivity
6 | QVQLVESGGGLVQAGGSLRLSCAASGSIFTPNGRGWYRPAPGKDSELVAAISQSGGSTFYADSVKGRFTMSRDNAKYTVYLQMNSLKPEDSAVYYCATEYYGPVYDLDYDYWGQGSQVTVSS | low polyreactivity
7 | QVQLVESGGGLVQAGGSLRLSCAASGSIFTPNVMGWYRQAPGKERELVAAISQSGGSTFYADSVKGRFTISRDNAKNNVYLQMNSLKPEDTAVYYCAADPFYYFPSPFDYWGQGTQVTVSS | low polyreactivity
8 | QVQLVESGGGLVQAGGSLRLSCAASGSIFTPYAMGWYRQAPGKERELVAAISDSVGSTYYADSVKGRFTISRDNAKNTVYLQMNSLKPEDTAVYYCAAEYWVYDSYWFDYDYWGQGTQVTVSS | high polyreactivity
9 | QVQLVESGGGLVQAGGSLRLSCAASGSIFTPYAMGWYRQAPGKERELVAAITSGGSTYADSVKGRFTISRDNAKNTVYLQMNSLKPEDTAVYYCAADRSYVYAGADMYYWGQGTQVTVSS | low polyreactivity
10 | QVQLVESGGGLVQAGGSLRLSCAASGSIFTPYAMVWYRQAPGKERELVATISWRGGSTYADSVKGRFTISRDNAKNTVYLQMNSLKPEDTAVYYCNKEYTFSLYDYWGQGSQVTVSS | low polyreactivity
11 | QVQLVESGGGLVQAGGSLRLSCAASGSIFTRNALGWYRQAPGKETEFVAAISSSGVSTYYADSVKGRFTISRDNAKNTVYLQMNSLKPEDTAVYDCAARWGTKSGRFEYWGQGTQVTVSW | high polyreactivity
12 | QVQLVESGGGLVQAGGSLRLSCAASGSIFTRNAMGWYITAPGKEREFVAAISSSGVSTYYADSVKGRLTISRDNAKNTVYLQMNSLKPEDTAVYYCAARWGTKSGRYDYWGQGTQVTVSS | high polyreactivity
13 | QVQLVESGGGLVQAGGSLRLSCAASGSIFTRNAMGWYRQAPGKERELVAAISWRGGITNYADSVKGRFTISRDNAKNTVYLQMNSLKPEDTAVYYCNKIRTRGGYGYWGQGTQVTVSS | high polyreactivity
14 | QVQLVESGGGLVQAGGSLRLSCAASGSIFTRNTMGWYRQAPGKERELVAAISTSGGDTYYADSVKGRFTISRDNAKNTVYLQMNSLKPEDTAVYFCAVVLVGVYFGYDYWGQGTQVTVSS | high polyreactivity
15 | QVQLVESGGGLVQAGGSLRLSCAASGSIFTRYAMGWYRQAPGKERELVADIRTRGGGTYYADSVKGRFTISRDTAKNTVYLQMNSLKPEDTAVYYCAKLWYHVYGSSPYGYWGQGTQVTVSS | high polyreactivity
16 | QVQLVESGGGLVQAGGSLRLSCAASGSIFTRYAMGWYRQEPGKERELVAAITTRGSSTYYADSVKGRFTISRDYAKNTVYLQMNSLKPEDTAVYYCATVVRLYRGRYRYDYWGQGTQVTVSS | high polyreactivity
17 | QVQLVESGGGLVQAGGSLRLSCAASGSIFTSYAMGWYRHAPGKERELVAAITSTGGSTYYADSVKGRFTISRDNAKNTVYLQMNSLKPEDTAVYYCNADGGTPYDYWGQGTQVTVSS | low polyreactivity
18 | QVQLVESGGGLVQAGGSLRLSCAASGSIFTSYAMGWYRQAPGKERELVAGISWSVGGITYYADSVKGRFTISRDNAKNTVYLQMNSLKPEDTAVYYCAADPEGGLGTIPEDYWGQGTQVTVSS | low polyreactivity
19 | QVQLVESGGGLVQAGGSLRLSCAASGSIFTTYAMGWYRQAPGKERELVAAISSTSGSTYYADSVKGRFTISGDNAKNTVYLQMTSLKPEDTAVYYCAARGGYWGQGTQVTVSS | low polyreactivity
20 | QVQLVESGGGLVQAGGSLRLSCAASGSIFTVYAMGWYRPAPGTERELVARISSGAGTTYADSVKGRFTISRDNAKNTVYVQMKSLTPEDTAVYYCAAYTWDTDHYWYGYVPYDYWGQGTQVSVSS | low polyreactivity
21 | QVQLVESGGGLVQAGGSLRLSCAASGSIFTVYAMGWYRQAPGKERELVAAISRRGGSTYYADSVKGRFTISRDNAKNTVYLQMNSLKPEDTAVYYCAALERTLDNKYQFGYWGQGTEVTVSS | high polyreactivity
22 | QVQLVESGGGLVQAGGSLRLSCAASGSIFTVYAMGWYRQAPGKERELVAVINYRGGNTYYADSVKGRFTISRDNAKNTVYLQMNSLKPEDTAVYYCATEVSWHWYQLSVPRMDYWGQGTQVTVSS | low polyreactivity

Row | Sequence | polyreactivity (PSR sort gate)
23 | QVQLVESGGGLVQAGGSLRLSCAASGSIFTVYGMGWYRQAPGKERELVAAITCTSGGTYYADSVKGRFTISRDNAKNTVYLQMNSLKPEDTAVYYCNADGGSGAYLDLTITDYDYWGQGTQVTVSS | low polyreactivity
24 | QVQLVESGGGLVQAGGSLRLSCAASGSIFTWNAMGWYRQAPGKERELVAAISWIGDSTYYADSVKGRFTISRDNAKNTVYLQMNSLKPEDTAVYYCAAEYAQGSRELESWGQGTQVTVSS | low polyreactivity
25 | QVQLVESGGGLVQAGGSLRLSCAASGSIFTWNGMGWYRQAPGKERELVAAISNGASTNYADSVKGRFTISRDNAKNTVYLQMNSLYPEDTAVYYCAAKSTGRYDYWGQGTQVTVSS | low polyreactivity
26 | QVQLVESGGGLVQAGGSLRLSCAASGSIFTWNVMGWYRQAPGKERELVAAISSGGSTNYADSVKGRFTISRDNAKNTVYLQMNSLKPEDTAVYYCATYFRVWYRSYDYWGQGTQVTVSS | high polyreactivity
27 | QVQLVESGGGLVQAGGSLRLSCAASGSIFTWYAMGWYRQAPGKERELVAAITRGGSTYADSVKGRFTISRDNAKNTVYLQMNSLKPEDTAVYYCNAVYGVYDFNYWGQGTQVTVSS | low polyreactivity
28 | QVQLVESGGGLVQAGGSLRLSCAASGSIFTYNTMGWYRQAPGKERELVAAISGRGGRTYYADSVKGRFTISRDNAKKTVYLQMNSLKPEDTAVYYCNARKYSQKIYGNYNYWGQGTQVTVSS | high polyreactivity
29 | QVQLVESGGGLVQAGGSLRLSCAASGSIFTYYAMGWYRPEPGKERELVAAISRRGTRTYYADSVKGRFTISRDNAKNTVYLQMNSLKPEDTAVYYCAAEYTETGTAKMEYWGQGTQVTVSS | high polyreactivity
30 | QVQLVESGGGLVQAGGSLRLSCAASGSIFTYYAMGWYRQAPGKERELVAAIDFSGASTSYADSVKGRFTISRDNAKNTVYLQMNSLKPEDTAVYYCAAVLYWYPPYYYWGQGTQVTVSS | low polyreactivity
31 | QVQLVESGGGLVQAGGSLRLSCAASGSIFTYYAMGWYRQAPGKERELVAAINWSGGSTYYADSVKGRFTISRDNAKNTVYLQMNSLKPEDTAVYYCATDYYARRHSPRYDYWGQGTQVTVSS | low polyreactivity
32 | QVQLVESGGGLVQAGGSLRLSCAASGSIFTYYAMGWYRQAPGKERELVAAISYSGGTTYYADSVKGRFTISRDNAKNTVYLQMYSLKPEDTAVYYCNVDADYESEWLSVGYDYWGQGTQVTVSS | low polyreactivity
33 | QVQLVESGGGLVQAGGSLRLSCAASGSIFTYYAMGWYRQAPGKERELVASISWGGGSTYYADSVKGRFTISRDNAKNSVYLQMNSLKPVDTAVYYCATDVYVDYFVGGEYWGQGTQVTVSS | low polyreactivity
34 | QVQLVESGGGLVQAGGSLRLSCAASGSIFTYYVMGWYRQAPGKERELVATITGSSGSTYYADSVKGRFTISRDNAKNTVYLQMNSLKPEDTAVYYCNRTYYHYLYRGYGYWGQGTQVTVSS | low polyreactivity
35 | QVQLVESGGGLVQAGGSLRLSCAASGSIFVAYDMGCYRQAPGKESALVAAIDSVGRTNYADSVKGRFTISRDNAKNTVYLQMNSLQPEDTAVYYCNADQYYSFYDPDDYWGQGTQVTVSS | low polyreactivity
36 | QVQLVESGGGLVQAGGSLRLSCAASGSIFVDYAMGWYRQAPGKERELVAAITSGGRTNYADSVKGRFTISRDNAKNTVYLQMKSLKPEDTAVYYCNKTRYTNYYTTTFDYWGQGTQVTVSS | low polyreactivity
37 | QVQLVESGGGLVQAGGSLRLSCAASGSIFVFYAMGWYRQAPGKERELVASITRSGVSTYYADSVKGRFTISRDNAKNTVYLQMNSLKPEDTAVYYCNVYKGNVVEHDYWGQGTQVTVSS | high polyreactivity
38 | QVQLVESGGGLVQAGGSLRLSCAASGSIFVGNAMGWYRQAPGKERELFAAISSSGGSTYYADSVKGRFTISRDKAKNTFYLQMNILKPEDTAVYYCASDTYSTSGFYYWGQGTQVTVSS | low polyreactivity
39 | QVQLVESGGGLVQAGGSLRLSCAASGSIFVGNAMGWYRQAPGKERELVAAISRGGGSTYYADSVKGRFTISRDNAKNTVYLQMNSLKPEDTAVYYCAAVKYYYGSAYDYWGQGTQVTVSS | high polyreactivity
40 | QVQLVESGGGLVQAGGSLRLSCAASGSIFVGNAMGWYRQAPGKERELVAAISWGGARTYYADSVKGRFTISRDNAKNTVYLQMNSLKQEDTAVYYCAAGSSSRSTTHYYYWGQGTQVTVSS | high polyreactivity
41 | QVQLVESGGGLVQAGGSLRLSCAASGSIFVGNAMGWYRQAPGKERELVATISWSGGSTYYADSVKGRFTISRDNAKNTVYLQMNSLKPEDTAVYYCAKTPYRRYRYGGYTYRTYDYWGQGTQVTVSS | low polyreactivity
42 | QVQLVESGGGLVQAGGSLRLSCAASGSIFVGYAMGWYRQAPGKERELVAAISASGSSTYYADSVKGRFTISRDNAKNTVYLQMNSLKPEDTAVYYCATKRVASSWTYVYWGQGSQVTVSS | high polyreactivity
43 | QVQLVESGGGLVQAGGSLRLSCAASGSIFVGYAMGWYRQAPGKERELVARISSDGDTYYADSVKGRFTISRDNAKNTVYLQMNSLKPEDTAVYYCNADLYGGGDKSVISGLNGEYEYWGQGTQVTVSS | low polyreactivity
